According to US20260125454A1 (SHANGHAI JUNSHI BIOSCIENCES, published 2026):

What was measured:
CGRP antigen = assay: cell-based or functional assay
Biotin-huCGRPaSA = biological target: T1, Biotin-huCGRPaSA (human, not fully specified; biotin (position not given)); assay: ELISA, supernatant; relative to chimeric C245
T1 construct: exact construct ('aSA') not explained; also called Biotin CGRPaSA; full-length (1-37) CGRP
T1 peptide: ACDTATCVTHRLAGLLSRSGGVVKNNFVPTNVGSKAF
Method in brief: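 Antibodies, including reference chimeric C245, titrated 2.5-fold from 1000 ng/mL and incubated 60 min at 37°C on wells coated with 1.0 μg/mL biotin-CGRPaSA and blocked with 2% BSA. Bound IgG detected with HRP anti-human Fc antibody and TMB, acid-stopped, absorbance 450/620 nm.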

Row | Binder | IC50 (CGRP antigen) | relative activity (%) vs Ref(TEVA) (CGRP antigen) | Relative binding activity, % (Biotin-huCGRPaSA) | relative activity (%) vs C245 (CGRP antigen)
1 | hu32 (antibody, V domains shown, 1F5 HC-1/1F5 LC1-2) VH: QVQLVQSGAEVKKPGASVKVSCKASGYTFIDFNMHWVRQAPGQRLEWMGYIYPYNGDVVYNQNFTNRVTLTVDTSSSTAYMELSSLRSEDTAVYYCAREGLGGYWGQGTLVTVSS VL: EIVLTQSPATLSLSPGERATLSCKASQNIDFDGYAYMNWYQHKPGQAPRVLIYSVFNLESGIPARFSGSGSGTDFTLTISSLEPEDFAVYYCQQSHEVPYTFGQGTKLEIK | 0.137 µg/mL | 26% | 116% | –
2 | hu86 (antibody, V domains shown, 1F5 HC-5/1F5 LC1-4) VH: QVQLVQSGAEVKKPGASVKVSCKASGYTFIDFNMHWVRQAPGQRLEWMGYIYPYNADVVYNQDFTNRVTLTVDTSSSTAYMELSSLRSEDTAVYYCAREGLGGYWGQGTLVTVSS VL: DIVLTQSPDSLAVSLGERATINCKASQNIDFDGYAYMNWYQHKPGQPPKVLIYSVFNLESGVPDRFSGSGSGTDFTLTISSLQAEDVAVYYCQQSHEVPYTFGQGTKLEIK | 0.134 µg/mL | 35% | 118% | –
3 | hu151 (antibody, V domains shown, 3E5 HC-1/1F5 LC1-4) VH: QVQLVQSGAEVKKPGASVKVSCKTSGYTFTDYNMHWVRQAPGQRLEWMGYISPYNGGTAYNQKFKFRVTLTVDTSSSTAYMELSSLRSEDTAVYYCAREGLGGYWGQGTLVTVSS VL: DIVLTQSPDSLAVSLGERATINCKASQNIDFDGYAYMNWYQHKPGQPPKVLIYSVFNLESGVPDRFSGSGSGTDFTLTISSLQAEDVAVYYCQQSHEVPYTFGQGTKLEIK | 0.0677 µg/mL | 48% | 119% | –
4 | hu45 (antibody, V domains shown, 1F5 HC-2/1F5 LC1-2) VH: QVQLVQSGAEVKKPGASVKVSCKASGYTFTDFNMHWVRQAPGQRLEWMGYIYPYNGDVVYNQNFTNRVTLTVDTSSSTAYMELSSLRSEDTAVYYCAREGLGGYWGQGTLVTVSS VL: EIVLTQSPATLSLSPGERATLSCKASQNIDFDGYAYMNWYQHKPGQAPRVLIYSVFNLESGIPARFSGSGSGTDFTLTISSLEPEDFAVYYCQQSHEVPYTFGQGTKLEIK | 0.108 µg/mL | 33% | 119% | –
5 | hu58 (antibody, V domains shown, 1F5 HC-3/1F5 LC1-2) VH: QVQLVQSGAEVKKPGASVKVSCKASGYTFTDFNMHWVRQAPGQGLEWMGYIYPYNGDVVYNQNFTNRVTLTVDTSSSTAYMELRSLRSDDTAVYYCAREGLGGYWGQGTLVTVSS VL: EIVLTQSPATLSLSPGERATLSCKASQNIDFDGYAYMNWYQHKPGQAPRVLIYSVFNLESGIPARFSGSGSGTDFTLTISSLEPEDFAVYYCQQSHEVPYTFGQGTKLEIK | 0.0619 µg/mL | 50% | 113% | –
6 | hu136 (antibody, V domains shown, 2B8 HC1-3/1F5 LC1-2) VH: QVQLVQSGAEVKKPGASVKVSCKASGYTFTDYNMHWVRQAPGQGLEWMGNIYPYNAGTVYNQKFNNRVTLTVDTSSSTAYMELSRLRSDDTAVYYCAREGLGGYWGQGTLVTVSS VL: EIVLTQSPATLSLSPGERATLSCKASQNIDFDGYAYMNWYQHKPGQAPRVLIYSVFNLESGIPARFSGSGSGTDFTLTISSLEPEDFAVYYCQQSHEVPYTFGQGTKLEIK | 0.124 µg/mL | 28% | 101% | –
7 | hu84 (antibody, V domains shown, 1F5 HC-5/1F5 LC1-2) VH: QVQLVQSGAEVKKPGASVKVSCKASGYTFIDFNMHWVRQAPGQRLEWMGYIYPYNADVVYNQDFTNRVTLTVDTSSSTAYMELSSLRSEDTAVYYCAREGLGGYWGQGTLVTVSS VL: EIVLTQSPATLSLSPGERATLSCKASQNIDFDGYAYMNWYQHKPGQAPRVLIYSVFNLESGIPARFSGSGSGTDFTLTISSLEPEDFAVYYCQQSHEVPYTFGQGTKLEIK | 0.256 µg/mL | 19% | 111% | –
8 | hu74 (antibody, V domains shown, 1F5 HC-4/2B8 LC2-1) VH: QVQLVQSGSELKKPGASVKVSCKASGYTFTDFNMHWVRQAPGQGLEWMGYIYPYNGDVVYNQNFTNRFVLSVDSSSSTAYLQISSLKAEDTAVYYCAREGLGGYWGQGTLVTVSS VL: DIVLTQSPDSLAVSLGERATINCQASQNIDGNTYMNWYQQKPGQPPKVLIYSIFNLESGVPDRFSGSGSGTDFTLTISSLQAEDVAVYYCQQSNDYPYTFGQGTKLEIK | 0.0739 µg/mL | 58% | 112% | –
9 | hu76 (antibody, V domains shown, 1F5 HC-4/3E5 LC-1) VH: QVQLVQSGSELKKPGASVKVSCKASGYTFTDFNMHWVRQAPGQGLEWMGYIYPYNGDVVYNQNFTNRFVLSVDSSSSTAYLQISSLKAEDTAVYYCAREGLGGYWGQGTLVTVSS VL: DIVLTQSPDSLAVSLGERATINCKASQNIDYDGYTYLNWYQQKPGQPPKVLIYSIFNLESGVPDRFSGSGSGTDFTLTISSLQAEDVAVYYCQQSNEVPYTFGQGTKLEIK | 0.0649 µg/mL | 66% | 112% | –
10 | hu66 (antibody, V domains shown, 1F5 HC-4/1A2 LC2-1) VH: QVQLVQSGSELKKPGASVKVSCKASGYTFTDFNMHWVRQAPGQGLEWMGYIYPYNGDVVYNQNFTNRFVLSVDSSSSTAYLQISSLKAEDTAVYYCAREGLGGYWGQGTLVTVSS VL: DIVLTQSPASLAVSPGQRATITCKASQNIDYDGYAYLNWYQQKPGQPPKVLIYSVFNLESGVPARFSGSGSGTDFTLTINPVEANDTANYYCQQSNEFPYTFGQGTKLEIK | 0.0566 µg/mL | 89% | 129% | –
11 | hu77 (antibody, V domains shown, 1F5 HC-4/3H10 LC2-1) VH: QVQLVQSGSELKKPGASVKVSCKASGYTFTDFNMHWVRQAPGQGLEWMGYIYPYNGDVVYNQNFTNRFVLSVDSSSSTAYLQISSLKAEDTAVYYCAREGLGGYWGQGTLVTVSS VL: DIVLTQSPDSLAVSLGERATINCKASQNIDYGGYSYMNWYQQKPGQPPKVLIYSVFNLESGVPDRFSGSGSGTDFTLTISSLQAEDVAVYYCQQSNEAPYTFGQGTKLEIK | 0.0778 µg/mL | 55% | 112% | –
12 | hu226 (antibody, V domains shown, 3C1 HC-2/3C1 LC-1) VH: QVQLVQSGAEVKKPGASVKVSCKASGYTFTGYTMNWVRQAPGQRLEWMGLINPYIGNTHYNQKFKDRVTFTVDRSSSTAYMELSSLRSEDTAVYYCARELDSGFDYWGQGTLVTVSS VL: DVVMTQSPLSLPVTLGQPASISCRSSQNIVHSNGDTYLEWYQQRPGQSPRLLIYKVSNRFSGVPDRFSGSGSGTDFTLKISRVEAEDVGVYYCYQGSHVPWTFGQGTKLEIK | 0.0446 µg/mL | – | 65% | 53%
13 | hu223 (antibody, V domains shown, 3C1 HC-1/3C1 LC-2) VH: QVQLVQSGAEVKKPGASVKVSCKASGYSFTGYTMNWVRQAPGQRLEWMGLINPYIGNTHYNQKFKDRVTFTVDRSSSTAYMELSSLRSEDTAVYYCARELDSGFDYWGQGTLVTVSS VL: DVVMTQTPLSLSVTPGQPASISCRSSQNIVHSNGDTYLEWYLQKPGQSPQLLIYKVSNRFSGVPDRFSGSGSGTDFTLKISRVEAEDVGVYYCYQGSHVPWTFGQGTKLEIK | 0.0353 µg/mL | – | 71% | 51%
14 | hu222 (antibody, V domains shown, 3C1 HC-1/3C1 LC-1) VH: QVQLVQSGAEVKKPGASVKVSCKASGYSFTGYTMNWVRQAPGQRLEWMGLINPYIGNTHYNQKFKDRVTFTVDRSSSTAYMELSSLRSEDTAVYYCARELDSGFDYWGQGTLVTVSS VL: DVVMTQSPLSLPVTLGQPASISCRSSQNIVHSNGDTYLEWYQQRPGQSPRLLIYKVSNRFSGVPDRFSGSGSGTDFTLKISRVEAEDVGVYYCYQGSHVPWTFGQGTKLEIK | 0.039 µg/mL | – | 65% | 46%
15 | hu230 (antibody, V domains shown, 3C1 HC-3/3C1 LC-1) VH: QVQLVQSGSELKKPGASVKVSCKASGYTFTGYTMNWVRQAPGQGLEWMGLINPYIGNTHYNQKFKDRFVFSVDRSSSTAYLQISSLKAEDTAVYYCARELDSGFDYWGQGTLVTVSS VL: DVVMTQSPLSLPVTLGQPASISCRSSQNIVHSNGDTYLEWYQQRPGQSPRLLIYKVSNRFSGVPDRFSGSGSGTDFTLKISRVEAEDVGVYYCYQGSHVPWTFGQGTKLEIK | 0.0464 µg/mL | – | 64% | 56%
16 | hu227 (antibody, V domains shown, 3C1 HC-2/3C1 LC-2) VH: QVQLVQSGAEVKKPGASVKVSCKASGYTFTGYTMNWVRQAPGQRLEWMGLINPYIGNTHYNQKFKDRVTFTVDRSSSTAYMELSSLRSEDTAVYYCARELDSGFDYWGQGTLVTVSS VL: DVVMTQTPLSLSVTPGQPASISCRSSQNIVHSNGDTYLEWYLQKPGQSPQLLIYKVSNRFSGVPDRFSGSGSGTDFTLKISRVEAEDVGVYYCYQGSHVPWTFGQGTKLEIK | 0.0368 µg/mL | – | 64% | 64%
17 | hu234 (antibody, V domains shown, 3C1 HC-4/3C1 LC-1) VH: QVQLVQSGAEVKKPGASVKVSCKASGYTFTGYTMNWVRQAPGQGLEWMGLINPYIGNTHYNQKFKDRVTFTVDRSSSTAYMELSRLRSDDTAVYYCARELDSGFDYWGQGTLVTVSS VL: DVVMTQSPLSLPVTLGQPASISCRSSQNIVHSNGDTYLEWYQQRPGQSPRLLIYKVSNRFSGVPDRFSGSGSGTDFTLKISRVEAEDVGVYYCYQGSHVPWTFGQGTKLEIK | 0.0429 µg/mL | – | 50% | 65%
